This note sets out measurements from patent publication US20210032294A1, “MODIFIED PlySs2 LYSINS AND USES THEREOF” (CONTRAFECT CORPORATION, priority 2018, published 2021).

One series deals with bacterial inoculum. The experiment in a line: Thermal stability: in vitro lytic assay after 30 min heating. Particulars: for % Wild-Type Activity at 37° C. / % of CF-301 wild-type, 37° C.: 30 minutes at 37° C.; for % Wild-Type Activity at 37° C.: 128 μg/mL in Tris buffer pH 8.0, CF-301 set at 100; for % of CF-301 wild-type, 37° C.: another experiment; for % of CF-301 wild-type, 40° C.: 30 minutes at 40° C.; for % of CF-301 wild-type, 42° C.: 30 minutes at 42° C.; for % of CF-301 wild-type, 45° C.: 30 minutes at 45° C.; for % of CF-301 wild-type, 48° C.: 30 minutes at 48° C.; for % of CF-301 wild-type, 50° C.: 30 minutes at 50° C. The format is cell-based. As to the method:
Thermal stability was assessed by incubating the lysin polypeptides at a fixed concentration of 128 μg/mL in Tris buffer pH 8.0 for 30 minutes at various elevated temperatures (within the range of about 30° C. to 60° C.) prior to assessing activity. The samples were then cooled for 2 minutes on ice and activity was then assessed by an in vitro lytic assay by exposing a bacterial inoculum (OD600 ˜0.5-1.2) in Tris buffer to a 2-fold dilution series of each sample (diluted from 128-0.25 μg/mL across the x-axis of a 96 well microtiter plate). The loss of optical density was followed for 15 minute at room temperature, and the specific activity was determined based on the enzyme concentration enabling a 50% loss of optical density at 15 minutes. The enzyme activities of each variant were compared to the wild-type, CF-301 enzyme (GMT-grade PlySs2 protein) to calculate the % of Wild-Type Activity over a range of temperatures.
The thermal stability of wild-type, CF-301 was arbitrarily set at 100. The results for exemplary modified lysin polypeptides are set forth below in Table 5 at a single temperature of 37° C.:
In another experiment, the thermal stability of modified lysin polypeptides was assessed at different temperatures and compared with that of wild-type, CF-301 (set at 100).

In series [1] the test system is S. aureus isolate CFS-860. The experiment in a line: Mouse neutropenic thigh infection (MNTI) model. The format is in vivo, Staphylococcus aureus. The settings on record: neutropenic BALB/cByJ mice, intravenous, dose response, 24 hours. How it is done:
The efficacy of four modified lysin polypeptides was compared to wild-type PlySs2 in a dose response (0-60 mg/kg) assay using a mouse neutropenic thigh infection (MNTI) model.
Bacterial inoculum was generated by allowing bacterial cells to grow to exponential phase in MHB until they reached an optical density (OD) of about 0.5 at 600 nm. The bacterial cells were thoroughly washed, resuspended in 0.9% sodium chloride USP, and diluted to an equivalent of 3.9×10^8 colony forming units (CFU)/mL. Cells were further diluted as described below in 0.9% sodium chloride USP and maintained on wet ice.
Neutropenia was induced in female BALB/cByJ mice (5-7 weeks, Jackson Laboratories) by intraperitoneal (ip) administration of 150 mg/kg and 100 mg/kg of cyclophosphamide 4 and 1 days prior to inoculation of bacteria, respectively. Bacterial inoculum (S. aureus isolate CFS-860, 100 μl of 10^7 CFU/ml solution) was injected intramuscularly (IM) into both posterior thighs of each mouse. […] At 2 hours post-inoculation (Early Control) and 24 hours post-treatment initiation, animals were euthanized (CO2 asphyxiation), and the thighs were aseptically removed. Each thigh was weighed, placed into 4 ml sterile saline and homogenized in 7 ml lysing tubes using a Precellys24 high-throughput tissue homogenizer (Bertin Corp, Rockville, Md.). Dilutions of homogenate were plated on tryptic soy blood agar plates (Becton Dickinson) and incubated at 37° C. overnight in a CO2 incubator. Bacterial burden was enumerated and expressed as log 10 CFU/g of thigh weight and compared to control animals harvested at 2 hours post infection (Early Control) and animals treated with vehicle (Late Control).
The data representing mouse thigh bacterial burden are depicted in FIG. 2. The upper dot on the y-axis is vehicle alone, and the lower dot on the y-axis is the Early Control. pp1149 is in fact also a wild-type lysin over-expressed and purified in the laboratory along with the other modified lysin polypeptides and used as an additional positive control.

Series [2] in a line: Toxicity screening in mice. It counts as in vivo. The settings on record: 30 mg/kg. As to the method: Selected modified lysin polypeptides from Table 3 were subjected to further testing as described in more detail in subsequent Examples. […] The same 30 mg/kg dose of PlySs2 caused a 100% incidence of adventitial findings, which is an indication of potential toxicity.

Where “and” joins values, the source holds several entries; their conditions need not be identical. Equal values may be shown once.

B1: pp55: Modified PlySs2 lysin, SEQ ID NO: 3: L92W, V104S, V128T, Y137S; extra C-terminal lysine (+246K) (protein)
chain: MTTVNEALNNVRAQVGSGVSVGNGECYALASWYERMISPDATVGLGAGVGWVSGAIGDTISAKNIGSSYNWQANGWTVSTSGPFKAGQIVTWGATPGNPYGHVSIVEAVDGDRLTILEQNYGGKRYPTRNYYSAASSRQQVVHYITPPGTVAQSAPNLAGSRSYRETGTMTVTVDALNVRRAPNTSGEIVAVYKRGESFDYDTVIIDVNGYVWVSYIGGSGKRNYVATGATKDGKRFGNAWGTFK
With B1, in the series on bacterial inoculum, the “% Wild-Type Activity at 37° C.” value was 122% and 146%; the “% of CF-301 wild-type, 37° C.” value is 122.1%; the “% of CF-301 wild-type, 40° C.” value amounted to 110.8%; the “% of CF-301 wild-type, 42° C.” value was found to be 116.7%. Also, in the series on bacterial inoculum, the “% of CF-301 wild-type, 45° C.” value stood at 82.0%; the “% of CF-301 wild-type, 48° C.” value was found to be 36.5%; the “% of CF-301 wild-type, 50° C.” value worked out at 11.2%. For the same molecule, the “Bactericidal efficacy (thigh bacterial burden) versus wild type” value in series [1] is “activity comparable to wild-type PlySs2 lysin”. In addition, the “Adventitial findings (lesions)” value in series [2] is given as “did not result in adventitial lesions”.

B2: pp65: Modified PlySs2 lysin, SEQ ID NO: 5: L92W, V104S, V128T, Y137S, S198Q, V204A, V212A; +246K (protein)
chain: MTTVNEALNNVRAQVGSGVSVGNGECYALASWYERMISPDATVGLGAGVGWVSGAIGDTISAKNIGSSYNWQANGWTVSTSGPFKAGQIVTWGATPGNPYGHVSIVEAVDGDRLTILEQNYGGKRYPTRNYYSAASSRQQVVHYITPPGTVAQSAPNLAGSRSYRETGTMTVTVDALNVRRAPNTSGEIVAVYKRGEQFDYDTAIIDVNGYAWVSYIGGSGKRNYVATGATKDGKRFGNAWGTFK
For B2, in the series on bacterial inoculum, the “% Wild-Type Activity at 37° C.” value stood at 220%; the “% of CF-301 wild-type, 37° C.” value amounted to 219.9%; the “% of CF-301 wild-type, 40° C.” value was 248.4%; the “% of CF-301 wild-type, 42° C.” value is listed as 270.4%. For the same molecule, in the series on bacterial inoculum, the “% of CF-301 wild-type, 45° C.” value was determined as 82.1%; the “% of CF-301 wild-type, 48° C.” value is listed as 0.0%; the “% of CF-301 wild-type, 50° C.” value worked out at 0.0%. In series [1], the “Bactericidal efficacy (thigh bacterial burden) versus wild type” value is on record as “activity comparable to wild-type PlySs2 lysin”. Moreover, the “Adventitial findings (lesions)” value in series [2] was “did not result in adventitial lesions”.

B3: pp61: Modified PlySs2 lysin, SEQ ID NO: 4: L92W, V104S, V128T, Y137S, S198H, I206E; +246K (protein)
chain: MTTVNEALNNVRAQVGSGVSVGNGECYALASWYERMISPDATVGLGAGVGWVSGAIGDTISAKNIGSSYNWQANGWTVSTSGPFKAGQIVTWGATPGNPYGHVSIVEAVDGDRLTILEQNYGGKRYPTRNYYSAASSRQQVVHYITPPGTVAQSAPNLAGSRSYRETGTMTVTVDALNVRRAPNTSGEIVAVYKRGEHFDYDTVIEDVNGYVWVSYIGGSGKRNYVATGATKDGKRFGNAWGTFK
In the case of B3, in the series on bacterial inoculum, the “% Wild-Type Activity at 37° C.” value came to 258%; the “% of CF-301 wild-type, 37° C.” value came out at 258.3%; the “% of CF-301 wild-type, 40° C.” value came out at 149.1%; the “% of CF-301 wild-type, 42° C.” value came out at 189.4%. In the series on bacterial inoculum, the “% of CF-301 wild-type, 45° C.” value amounted to 80.0%; the “% of CF-301 wild-type, 48° C.” value worked out at 0.0%; the “% of CF-301 wild-type, 50° C.” value amounted to 0.0%. Moreover, the “Bactericidal efficacy (thigh bacterial burden) versus wild type” value in series [1] is listed as “activity comparable to wild-type PlySs2 lysin”. In addition, in series [2], the “Adventitial findings (lesions)” value is recorded as “did not result in adventitial lesions”.
